In patent US7166454:

Biological target: T1, peptide substrate KSEVNLDAEFRK derived from the sequence of Swedish amyloid precursor protein
T1 chain: KSEVNLDAEFRK

B1: β-secretase refolded from E. coli overexpression (protein)
chain: TQHGIRLPLRSGLGGAPLGLRLPRETDEEPEEPGRRGSFVEMVDNLRGKSGQGYYVEMTVGSPPQTLNILVDTGSSNFAVGAAPHPFLHRYYQRQLSSTYRDLRKGVYVPYTQGKWEGELGTDLVSIPHGPNVTVRANIAAITESDKFFINGSNWEGILGLAYAEIARPDDSLEPFFDSLVKQTHVPNLFSLQLCGAGFPLNQSEVLASVGGSMIIGGIDHSLYTGSLWYTPIRREWYYEVIIVRVEINGQDLKMDCKEYNYDKSIVDSGTTNLRLPKKVFEAAVKSIKAASSTEKFPDGFWLGEQLVCWQAGTTPWNIFPVISLYLMGEVTNQSFRITILPQQYLRPVEDVATSQDDCYKFAISQSSTGTVMGAVIMEGFYVVFDRARKRIGFAVSACHVHDEFRTAAVEGPFVTLDMEDCGYNIPQTDEST
- specificity constant (Kcat/Km): 1800 ± 100 M⁻¹ s⁻¹
